Target: MCR-1 protein
Experiment: indirect ELISA, plate coated with MCR-1 protein at 0.2 ug/mL, purified antibody serially diluted
Conditions: scale: dilution factor

B1: mouse anti-MCR-1 protein antibody 1BD9 (antibody, V domains shown)
VH: VKLQQSGPELVKPGASVKVSCKASGYAFTSCNMYWVKQSHGKSLEWIGYFDPYSGDAYYNQKFKDKATLTVDKSSSTAYMHLNSLTSEDSAVYYCASWLQLYYALDYWGQGTSVTVSA
VL: AIQMTQTPSSLSASLGDRVTISCRASQDISNYLNWYQQKPDGTVKLLIYYTSRLHSGVPSRFSGSGSGTDYSLNISNLEQEDFATYFCQQGDMIPDTFGGGTKLEIKR
- titer: > 1.28e+06

B2: mouse anti-MCR-1 protein antibody 1BH8 (antibody, V domains shown)
VH: VQLQQSGPELVKPGASVKMSCRASGYTFTNYIMHWVKQKPGQGLDWIGYINPYNDGTKYNEKFKGKATLSSDKSSGTAYMDLSSLTSEDSAVYYCARGPYGNYAMDYWGQGTSVTVSS
VL: DVLMTQTPLSLPVSLGDQASISCRSSQNIVCSYGNPCLEWYLQKPGQSPKLLIYKVSNRFSGVPDRFSGSGSGTDFTLKISRVEAEDLGVYYCFQGSHVPWTFGGGTELEIKR
- titer: > 1.28e+06

Reference: patent publication EP4170021A1
